This note sets out measurements from US10646622B2, “Biologically active implants” (priority 1998, dated 2020).

This data set deals with fracture of the right tibia. The data set is classed as in vivo, Sprague Dawley rats. The protocol:
In an experiment with animals, tests were conducted on 60 such animals (5-months-old female Sprague Dawley rats). All test animals were subjected to a standardized fracture of the right tibia. Differently coated titanium wires (1.0 mm in diameter) were then implanted in the repositioned tibiae as intramedullary supports.
Depending on the group assignments as specified below 2 mg/kg of a rat-specific recombinant growth hormone (r-rGH) or a placebo was subcutaneously injected daily for a period of time up to 42 days. At various time points (0 d, 4 d, 7 d, 14 d, 21 d, 28 d, 35 d, and 42 d) and after administration of an anaesthetic inhalant, x-rays were taken in two planes, 1.25 ml of blood was taken from each by the retrobulbar method (deep-frozen at −80° C. (−112° F.)), and their weight and body temperature were measured. On day 42, the fractured and the unfractured tibiae, along with the periosteum, were separately prepared and subjected to biomechanical tests (torsional load-torsional stiffness).
Group Assignments • Group I: Fracture of the right tibia—uncoated implant— • Systemic application of a placebo (control group) • Group II: Fracture of the right tibia—implant coated with poly-D,L-lactide 203— • Systemic application of a placebo • Group III: Fracture of the right tibia—implant coated with poly-D,L-lactide— • Systemic application of (r-rGH) • Group IV: Fracture of the right tibia—implant coated with poly-D,L-lactide and growth factors IGF-I (5%) and TGF-β (1%)— • Systemic application of a placebo • Group V: Fracture of the right tibia—implant coated with poly-D,L-lactide and growth factors IGF-I (5%) and TGF-β (1%)— • Systemic application of (r-rGH)
The coated implants were produced as indicated in Example 1.

In the case of poly(D,L) lactide [PDLLA], the “differences in weight and temperature among placebo groups I, II and IV” value (rat, in vivo) was “No major differences”.

B1: r-rGH: rat-specific recombinant growth hormone, subcutaneously injected (protein, UniProt P01244 27-216, looked up)
Somatotropin: FPAMPLSSLFANAVLRAQHLHQLAADTYKEFERAYIPEGQRYSIQNAQAAFCFSETIPAPTGKEEAQQRTDMELLRFSLLLIQSWLGPVQFLSRIFTNSLMFGTSDRVYEKLKDLEEGIQALMQELEDGSPRIGQILKQTYDKFDANMRSDDALLKNYGLLSCFKKDLHKAETYLRVMKCRRFAESSCAF
As to B1, the body weight increase (2 mg/kg s.c. daily, compared to placebo, p<0.05) amounted to 13%. The maximum torsional load entry (day 42, systemic 2 mg/kg s.c. daily with implant coated with poly-D,L-lactide (Group III), p<0.05) was “significant increase”.
